Results: patent US20200317768A1 (published 2020)

Assays:
Human latent myostatin = target: T1, Human latent myostatin (human, UniProt O14793 25-266; O14793 267-375); experiment: SPR 37C; KD pH 5.8 / KD pH 7.4
T1 construct: also called human myostatin latent form
T1 sequence 1: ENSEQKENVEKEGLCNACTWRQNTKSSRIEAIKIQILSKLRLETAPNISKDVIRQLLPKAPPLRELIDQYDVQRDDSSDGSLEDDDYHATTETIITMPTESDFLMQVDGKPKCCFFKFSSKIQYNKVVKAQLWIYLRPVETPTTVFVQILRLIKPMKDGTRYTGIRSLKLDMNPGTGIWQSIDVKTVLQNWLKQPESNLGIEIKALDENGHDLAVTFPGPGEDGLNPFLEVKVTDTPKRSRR
T1 sequence 2: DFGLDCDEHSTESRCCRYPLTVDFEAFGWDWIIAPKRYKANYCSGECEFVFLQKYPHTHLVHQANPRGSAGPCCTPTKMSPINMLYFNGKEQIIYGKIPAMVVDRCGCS
Description: (§1) ProA/G (Pierce) was immobilized onto all flow cells of a CM4 chip using an amine coupling kit (GE Healthcare). All antibodies and analytes were prepared in ACES pH7.4 or pH5.8 buffer containing 20 mM ACES, 150 mM NaCl, 1.2 mM CaCl₂, 0.05% TWEEN®) 20, 0.005% NaN₃. […] Human, cyno, and mouse latent myostatin was injected at 3.125 to 50 nM prepared by two-fold serial dilution, followed by dissociation. The sensor surface was regenerated each cycle with 10 mM Glycine HCl pH1.5. Binding affinity was determined by processing and fitting the data to a 1:1 binding model using BIACORE® T200 Evaluation software, version 2.0 (GE Healthcare).

[1] = target: T2, Cynomolgus monkey latent myostatin (cynomolgus monkey, UniProt Q95J86 25-266; Q95J86 267-375); experiment: SPR 37C; KD pH 5.8 / KD pH 7.4
T2 construct: Latent form = complex of two propeptides and the mature dimer; also called Cyno latent myostatin
T2 sequence 1: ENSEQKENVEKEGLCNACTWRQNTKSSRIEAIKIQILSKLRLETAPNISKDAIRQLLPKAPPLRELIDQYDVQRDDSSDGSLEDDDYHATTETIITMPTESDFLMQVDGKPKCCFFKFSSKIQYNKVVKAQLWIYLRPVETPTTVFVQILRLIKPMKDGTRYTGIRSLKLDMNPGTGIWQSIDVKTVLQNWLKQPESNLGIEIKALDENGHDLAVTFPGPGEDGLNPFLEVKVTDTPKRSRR
T2 sequence 2: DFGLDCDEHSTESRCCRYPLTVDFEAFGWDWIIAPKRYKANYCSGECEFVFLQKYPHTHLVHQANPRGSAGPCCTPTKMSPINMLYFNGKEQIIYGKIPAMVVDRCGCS
Description: as §1

Mouse latent myostatin = target: T3, Mouse latent myostatin (mouse, UniProt O08689 26-267; O08689 268-376); experiment: SPR 37C; KD pH 5.8 / KD pH 7.4
T3 construct: Latent form = complex of two propeptides and the mature dimer
T3 sequence 1: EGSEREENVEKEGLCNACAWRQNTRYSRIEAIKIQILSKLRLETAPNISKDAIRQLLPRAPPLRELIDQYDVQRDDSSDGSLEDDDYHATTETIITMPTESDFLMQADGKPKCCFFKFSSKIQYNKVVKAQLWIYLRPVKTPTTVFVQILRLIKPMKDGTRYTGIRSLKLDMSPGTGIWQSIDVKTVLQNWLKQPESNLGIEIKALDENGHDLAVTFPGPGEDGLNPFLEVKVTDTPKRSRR
T3 sequence 2: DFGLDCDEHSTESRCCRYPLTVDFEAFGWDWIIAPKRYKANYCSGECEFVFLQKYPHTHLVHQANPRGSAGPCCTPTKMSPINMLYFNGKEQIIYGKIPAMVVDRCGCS
Description: as §1

[2] = target: T4, cynomolgus monkey FcγRIIIaS extracellular domain, C-terminal His-tag (cynomolgus monkey, UniProt Q8SPW2 21-206 at identity 1.00)); experiment: SPR (BIACORE) 25C, antibody captured, FcgR as analyte
T4 construct: also called cyno FcγRIIIaS; FcgRIIIaS
T4 chain: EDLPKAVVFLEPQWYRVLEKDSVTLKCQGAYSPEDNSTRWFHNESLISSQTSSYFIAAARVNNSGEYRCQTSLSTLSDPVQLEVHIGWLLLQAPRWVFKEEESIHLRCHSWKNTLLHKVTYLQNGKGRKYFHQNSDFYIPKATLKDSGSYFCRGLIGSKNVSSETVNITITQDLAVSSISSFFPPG
Description: (§2) The kinetic analysis of interactions between these antibodies and FcγR was carried out using BIACORE® T200 or BIACORE® 4000 (GE Healthcare). HBS-EP+ (GE Healthcare) was used as the running buffer, and the measurement temperature was set to 25° C. A chip produced by immobilizing Protein A. Protein A/G or mouse anti-human IgG kappa light chain (BD Biosciences) onto a Series S Sensor Chip CM4 or CM5 (GE Healthcare) by the amine-coupling method was used. […] After the measurement, the antibody captured on the chip was washed off by allowing reaction with 10 mM glycine-HCl, pH1.5 and 25 mM NaOH so that the chip was regenerated and used repeatedly. The sensorgrams obtained as measurement results were analyzed by the 1:1 Langmuir binding model using the BIACORE® Evaluation Software to calculate the binding rate constant ka (L/mol/s) and dissociation rate constant kd (l/s), and the dissociation constant KD (mol/L) was calculated from these values. […] Regarding such interactions, KD values were calculated using the following 1:1 binding model described in BIACORE® T100 Software Handbook BR1006-48 Edition AE.

[3] = target: T5, human FcγRIIaH extracellular domain, C-terminal His-tag (human, UniProt P12318 34-217); experiment: as above
T5 construct: also called human FcγRIIa (type H); FcgRIIaH
T5 sequence: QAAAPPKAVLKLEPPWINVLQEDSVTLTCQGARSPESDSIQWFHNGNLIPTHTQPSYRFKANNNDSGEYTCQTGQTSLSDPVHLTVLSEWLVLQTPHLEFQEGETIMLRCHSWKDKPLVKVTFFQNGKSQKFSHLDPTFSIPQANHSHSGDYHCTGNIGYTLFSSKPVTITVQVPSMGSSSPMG
Description: as §2

[4] = target: T6, cynomolgus monkey FcγRIIa1 extracellular domain with C-terminal His-tag (cynomolgus monkey); experiment: SPR (BIACORE), antibody captured, FcgR analyte
T6 construct: also called cyno FcgRIIa1; cynoFcγRIIa1
T6 chain: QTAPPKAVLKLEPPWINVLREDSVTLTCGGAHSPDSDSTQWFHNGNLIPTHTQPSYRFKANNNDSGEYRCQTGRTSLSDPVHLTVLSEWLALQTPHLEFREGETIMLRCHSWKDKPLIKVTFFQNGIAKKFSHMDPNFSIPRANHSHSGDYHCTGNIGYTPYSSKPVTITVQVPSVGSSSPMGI
Description: as §2
The behavior of interacting molecules according to the 1:1 binding model on BIACORE® can be described by Equation 1: Req=C·R max/(KD+C)+RI, wherein, Req is a plot of steady-state binding levels to analyte concentration. C is concentration, RI is bulk refractive index contribution in the sample, and Rmax is analyte binding capacity of the surface. When this equation is rearranged, KD can be expressed as Equation 2: KD=C·Rmax/(Req−RI)−C. KD can be calculated by substituting the values of Rmax, RI, and C into Equation 1 or Equation 2. From the current measurement conditions, RI=0, C=2 μmol/L can be used.

Binder	ratio of KD at pH 5.8/pH 7.4 (Human latent myostatin)	ratio of KD at pH 5.8/pH 7.4 [1]	ratio of KD at pH 5.8/pH 7.4 (Mouse latent myostatin)	Kd [2] [nM]	Kd [3] [nM]	Kd [4] [nM]
MS_M103205H795-SG1/M103202L889-SK1 (antibody, human IgG1, kappa, also called MS1032LO06-SG1) heavy: not shown light: DIVMTQSPATLSLSPGERATLSCTSSQSVYHANWLSWFQQKPGQPPKLLIYWASTLAYGVPSRFSGSGSGTDFTLTISSLQPEDAATYYCAGGYGGGRYAFGQGTKVEIKRTVAAPSVFIFPPSDEQLKSGTASVVCLLNNFYPREAKVQWKVDNALQSGNSQESVTEQDSKDSTYSLSSTLTLSKADYEKHKVYACEVTHQGLSSPVTKSFNRGEC	119	76	76	420	930	–
MS_M103205H795-SG1/M103202L889-SK1 (antibody, human IgG1, kappa, Parent antibody of the Fc variants; also called MS1032LO06-SG1) heavy: not shown light: DIVMTQSPATLSLSPGERATLSCTSSQSVYHANWLSWFQQKPGQPPKLLIYWASTLAYGVPSRFSGSGSGTDFTLTISSLQPEDAATYYCAGGYGGGRYAFGQGTKVEIKRTVAAPSVFIFPPSDEQLKSGTASVVCLLNNFYPREAKVQWKVDNALQSGNSQESVTEQDSKDSTYSLSSTLTLSKADYEKHKVYACEVTHQGLSSPVTKSFNRGEC	–	–	–	–	–	3200
